# In US20020068323A1 (Amgen, published 2002):
# T1: heterodimer of murine IL-7Rα and murine TSLPR polypeptide (murine, UniProt P16872 21-459)
# T1 construct: whole, on cells; Both chains co-expressed on transiently transfected 293 cells; also called IL-7Rα/TSLPR polypeptide heterodimer; cells expressing TSLPR polypeptide and IL-7Rα
# T1 sequence (P16872 whole entry, looked up): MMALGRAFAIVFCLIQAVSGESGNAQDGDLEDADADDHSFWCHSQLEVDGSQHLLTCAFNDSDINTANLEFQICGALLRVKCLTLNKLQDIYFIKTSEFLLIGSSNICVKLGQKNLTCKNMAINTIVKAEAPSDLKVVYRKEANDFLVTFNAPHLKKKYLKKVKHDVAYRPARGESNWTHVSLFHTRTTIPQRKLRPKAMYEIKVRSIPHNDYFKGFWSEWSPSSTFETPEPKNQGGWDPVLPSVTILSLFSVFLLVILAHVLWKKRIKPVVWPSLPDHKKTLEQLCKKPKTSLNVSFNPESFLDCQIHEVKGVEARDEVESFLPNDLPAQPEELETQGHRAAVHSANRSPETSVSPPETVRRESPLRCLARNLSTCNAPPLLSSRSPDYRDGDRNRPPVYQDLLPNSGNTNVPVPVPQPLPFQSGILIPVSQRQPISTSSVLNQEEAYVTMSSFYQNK
# T1 sequence (Q8CII9 whole entry, looked up): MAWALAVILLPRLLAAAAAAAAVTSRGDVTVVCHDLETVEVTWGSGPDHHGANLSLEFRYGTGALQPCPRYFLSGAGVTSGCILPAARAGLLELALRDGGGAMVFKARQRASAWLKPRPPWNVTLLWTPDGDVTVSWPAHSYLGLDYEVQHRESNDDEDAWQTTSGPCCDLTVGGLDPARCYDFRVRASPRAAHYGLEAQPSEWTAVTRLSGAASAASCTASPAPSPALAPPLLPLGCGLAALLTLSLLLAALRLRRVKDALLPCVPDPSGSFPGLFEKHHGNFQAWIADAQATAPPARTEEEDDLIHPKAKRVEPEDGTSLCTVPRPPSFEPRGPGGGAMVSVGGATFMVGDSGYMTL
# T2: murine IL-7Rα (murine, UniProt P16872 21-459)
# T2 construct: whole, on cells; Expressed alone on transiently transfected 293 cells; also called murine IL-7Rα alone
# T2 sequence (looked up): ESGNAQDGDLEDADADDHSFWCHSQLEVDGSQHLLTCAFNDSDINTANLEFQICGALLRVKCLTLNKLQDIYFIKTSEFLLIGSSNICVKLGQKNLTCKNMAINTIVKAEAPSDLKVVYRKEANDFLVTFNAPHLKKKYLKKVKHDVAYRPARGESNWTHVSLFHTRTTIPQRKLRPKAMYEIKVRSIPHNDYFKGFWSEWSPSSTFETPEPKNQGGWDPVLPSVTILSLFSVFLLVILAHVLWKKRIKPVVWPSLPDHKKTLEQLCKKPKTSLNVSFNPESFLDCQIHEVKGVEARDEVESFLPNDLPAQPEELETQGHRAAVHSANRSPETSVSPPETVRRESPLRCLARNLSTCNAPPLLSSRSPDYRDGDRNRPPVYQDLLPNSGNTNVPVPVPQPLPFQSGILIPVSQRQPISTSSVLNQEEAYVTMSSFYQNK
# B1: Thymic stromal lymphopoietin (TSLP) (ligand, UniProt Q9JIE6 20-140, looked up)
# chain: YNFSNCNFTSITKIYCNIIFHDLTGDLKGAKFEQIEDCESKPACLLKIEYYTLNPIPGCPSLPDKTFARRTREALNDHCPGYPETERNDGTQEMAQEVQNICLNQTSQILRLWYSFMQSPE
# Experiments:
# [1] = target: T1, heterodimer of murine IL-7Rα and murine …; assay: displacement binding assay on transfected 293 cells, Scatchard transformation (LIGAND program)
# Procedure: (§1) The binding of TSLP to 293 cells transfected with murine IL-7Rα and murine TSLPR polypeptide, or murine IL-7Rα alone, was analyzed in a displacement binding assay. Following two washes, 1×10⁶ transfected 293 cells were incubated in a constant amount of ¹²⁵I-labeled TSLP (approximately 20,000 cpm) and varying amounts of unlabeled TSLP. Following a 3 hour incubation, treated cells were separated from the medium by centrifugation in olive oil and N-butylphthalate. Cell-bound radioactivity was measured using a gamma counter.
# (§2) Analysis of binding data by Scatchard transformation was performed using the LIGAND computer program (Munson and Rodbard, 1980, Anal. Biochem. 107:220-39). […] Due to the very low binding activity of TSLP for cells expressing […], it was not possible to determine the Kd for these cells. Displacement binding assays were also performed using NAG8/7 cells, which constitutively express TSLP receptors and proliferate in response to TSLP (Friend et al., supra; Levin et al., supra). In these displacement binding assays, 5×10⁶ NAG8/7 cells were incubated in a constant amount of ¹²⁵I-labeled TSLP (approximately 180,000 cpm) and varying amounts of unlabeled TSLP. The remainder of the assay was performed as described herein.
# murine IL-7Rα = target: T2, murine IL-7Rα; assay: affinity labeling, DSS cross-linking, transfected 293 cells, SDS-PAGE
# Procedure: The binding of TSLP to TSLPR polypeptide in the presence of IL-7Rα was examined in affinity labeling assays. Affinity labeling assays were performed by adding 1-5 nM of ¹²⁵I-labeled TSLP to 5×10⁶ 293 cells transfected with expression constructs for murine IL-7Rα, murine TSLPR polypeptide, murine IL-7Rα and murine TSLPR polypeptide, or human IL-7Rα and murine TSLPR polypeptide. Iodinated TSLP was prepared by adding IODO-GEN (Pierce, Rockford, Ill.) and 2 mCi¹²⁵I to 1 μg of TSLP. A specific activity of approximately 200-300 μCi/μg was obtained by this method. Prior to affinity labeling, 293 cells were transiently transfected using the calcium phosphate method (Eppendorf-5 Prime, Boulder, Colo.). Following a 2 hour incubation with ¹²⁵I-TSLP, cells were cross-linked with 0.1 mg/ml disuccinimidyl suberate (Pierce), lysed in lysis buffer, and the lysates resolved by SDS-PAGE.
# [2] = target: T3, TSLP receptors constitutively expressed on NAG8/7 cells; assay: displacement binding assay with ^125I-TSLP and unlabeled TSLP on NAG8/7 cells, Scatchard transformation
# T3 construct: also called single class of receptors
# Procedure: as §1, §2
binder,measurement,setting,value
B1,Kd,[1],~13 nM
same,binding result,murine IL-7Rα,no binding (tested: 1-5 nM of ^125I-labeled TSLP)
same,Kd,[2],~2.2 nM
